Where two headings read alike, the source gives them in different places.

Data set [1] is classed as physicochemical. The method, then:
Field of use applications were analyzed to determine the amount of a peroxide-reducing enzyme necessary to obtain desired concentrations of both peracid and hydrogen peroxide in a treated water source. EnviroSan (POAA) peracid composition was added to water to reach the targeted POAA concentrations set forth in Table 18, and the concentration of both POAA and H2O2 were confirmed by iodometric titration. Then catalase (ES2000) was added to the solution, and the sample was stored under ambient conditions. The concentration of POAA and H2O2 were monitored by the iodometric conditions.

Data set [2] can be described thus: Example 21 hydrogen peroxide decomposition with sequenced POAA and hypochlorite in deionized and contaminated water. Type of data set: physicochemical. As to conditions: water not containing any biological contamination. An excerpt: Additional evaluation of the process of using peroxide-reducing agents in sequence was further analyzed as shown in Table 32 using additional water samples, including deionized water (i.e. not contaminated), and the Control (as set forth above as a contaminated water source).
The peracetic acid and sodium hypochlorite are indistinguishable in titration, and are therefore presumed to consist of ½ of the titrateable material; however the focus of the evaluation was solely on the hydrogen peroxide decomposition.

Setting [3] is: Catalase 0.5 ppm, Time 1 hr, run starting at 14.6 ppm POAA.
Setting [4] is: Catalase 1.0 ppm, Time 1 hr, run starting at 30.1 ppm POAA.

catalase: the “selectivity of H2O2 decomposition versus POAA stability” value in data set [1] is on record as “selectively decomposes the H2O2 without having any negative impact on POAA stability”. Besides, the “H2O2(ppm)” value in data set [1] (Catalase 0.5 ppm, Time 0 hr, run starting at 14.6 ppm POAA) came out at 12.0 ppm; in data set [1] (setting [3]), 7.5 ppm; in data set [1] (Catalase 0.5 ppm, Time 2 hr, run starting at 14.6 ppm POAA), 6.5 ppm; in data set [1] (Catalase 0.5 ppm, Time 2 hr, run starting at 31.1 ppm POAA), 7.8 ppm; in data set [1] (Catalase 0.5 ppm, Time 3.6 hr, run starting at 14.6 ppm POAA) it was 1.8 ppm; in data set [1] (Catalase 0.5 ppm, Time 3.6 hr, run starting at 31.1 ppm POAA), 3.4 ppm. Moreover, the “H2O2(ppm)” value was 3.7 ppm in data set [1] (Catalase 1.0 ppm, Time 1 hr, run starting at 14.8 ppm POAA); 7.6 ppm in data set [1] (setting [4]); 1.1 ppm in data set [1] (Catalase 1.0 ppm, Time 2 hr, run starting at 14.8 ppm POAA); 2.3 ppm in data set [1] (Catalase 1.0 ppm, Time 2 hr, run starting at 30.1 ppm POAA); 0.4 ppm in data set [1] (Catalase 1.0 ppm, Time 3.6 hr, run starting at 14.8 ppm POAA); 0.0 ppm in data set [1] (Catalase 1.0 ppm, Time 3.6 hr, run starting at 30.1 ppm POAA). Further, the “POAA (ppm)” value in data set [1] (setting [3]) is 15.0 ppm; in data set [1] (Catalase 0.5 ppm, Time 1 hr, run starting at 31.1 ppm POAA), 32.0 ppm; in data set [1] (setting [4]) it was 31.0 ppm. In data set [1] (within 4 hours, ambient conditions), the “lowest catalase concentration treating pond water with POAA and H2O2” value was 0.5 ppm.

Take `OCl` [hypochlorite, sodium hypochlorite]: in data set [2], the “impact on the decomposition of hydrogen peroxide” value was “efficacious impact on the decomposition of hydrogen peroxide”.

The values above are taken from patent publication US9926214B2, “Use of peracetic acid/hydrogen peroxide and peroxide-reducing agents for treatment of drilling fluids, frac fluids, flowback water and disposal water” (Ecolab USA Inc., priority 2012, dated 2018).
